The results in this text go back to article PMC4304843, “Human Mitochondrial Hsp70 (Mortalin): Shedding Light on ATPase Activity, Interaction with Adenosine Nucleotides, Solution Structure and Domain Organization” (PLoS ONE, 2015).

In test [1] the target is Human Hsp70-1A, recombinant (human) (UniProt P0DMV8).
The target of test [2] is Human mitochondrial Hsp70 (mortalin), recombinant (human) (UniProt P38646).
Sequence of Human mitochondrial Hsp70 (mortalin), recombinant (human) (P38646 47-679): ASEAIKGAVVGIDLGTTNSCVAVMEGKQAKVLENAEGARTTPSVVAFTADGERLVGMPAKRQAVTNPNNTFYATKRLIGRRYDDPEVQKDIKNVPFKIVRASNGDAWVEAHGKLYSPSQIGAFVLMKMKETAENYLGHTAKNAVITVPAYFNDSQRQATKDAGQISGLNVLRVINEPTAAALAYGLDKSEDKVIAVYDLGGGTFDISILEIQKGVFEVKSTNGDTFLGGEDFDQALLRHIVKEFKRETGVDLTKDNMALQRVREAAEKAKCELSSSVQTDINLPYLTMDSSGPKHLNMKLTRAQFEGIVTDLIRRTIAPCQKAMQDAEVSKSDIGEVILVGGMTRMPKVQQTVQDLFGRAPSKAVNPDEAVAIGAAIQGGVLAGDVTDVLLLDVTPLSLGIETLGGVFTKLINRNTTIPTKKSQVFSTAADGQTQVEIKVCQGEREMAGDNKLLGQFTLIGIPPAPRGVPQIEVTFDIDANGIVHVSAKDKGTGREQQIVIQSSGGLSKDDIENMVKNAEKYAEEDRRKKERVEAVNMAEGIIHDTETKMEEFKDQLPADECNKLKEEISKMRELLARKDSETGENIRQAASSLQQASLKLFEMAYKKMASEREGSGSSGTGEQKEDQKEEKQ

Sequence of Human Hsp70-1A, recombinant (human) (P0DMV8 whole entry): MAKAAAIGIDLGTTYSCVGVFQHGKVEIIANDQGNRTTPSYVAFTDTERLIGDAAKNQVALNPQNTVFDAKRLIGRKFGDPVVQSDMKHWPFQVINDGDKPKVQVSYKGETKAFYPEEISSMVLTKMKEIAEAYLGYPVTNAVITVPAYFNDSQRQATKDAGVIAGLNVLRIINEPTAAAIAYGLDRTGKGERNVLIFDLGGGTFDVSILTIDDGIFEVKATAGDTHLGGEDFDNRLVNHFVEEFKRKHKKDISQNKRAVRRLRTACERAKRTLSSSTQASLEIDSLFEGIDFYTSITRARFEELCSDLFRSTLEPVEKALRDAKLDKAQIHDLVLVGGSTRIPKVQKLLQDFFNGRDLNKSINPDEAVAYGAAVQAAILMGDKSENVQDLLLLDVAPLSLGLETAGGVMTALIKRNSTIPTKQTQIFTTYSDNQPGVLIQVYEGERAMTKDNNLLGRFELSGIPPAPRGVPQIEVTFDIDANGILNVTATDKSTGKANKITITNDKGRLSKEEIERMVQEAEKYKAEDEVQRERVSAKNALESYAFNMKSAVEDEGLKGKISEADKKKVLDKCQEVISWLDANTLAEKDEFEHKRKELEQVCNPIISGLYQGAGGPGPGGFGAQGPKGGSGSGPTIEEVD

B1: NR peptide (NRLLLTGY) (peptide)
peptide: NRLLLTGY
With B1, in test [1], the EC50 of the stimulation of the basal ATPase activity of Hsp70-1A by NR peptide titration (1 mmol/L ATP, 37°C) was 170 µM and the relative stimulation of the basal ATPase activity of Hsp70-1A at increasing NR peptide concentrations; maximum reached at 500 μmol/L NR peptide worked out at 15%. In test [2], the EC50 of the stimulation of the basal ATPase activity of mortalin by NR peptide titration (1 mmol/L ATP, 37°C) came to 7 µM and the relative stimulation of the basal ATPase activity of mortalin at increasing NR peptide concentrations; maximum reached at 100 μmol/L NR peptide amounted to 25%.
